According to patent US20260209331A1 (published 2026):

T1: P19 subunit of human IL-23 (IL23p19) (UniProt Q9NPF7 20-189)
T1 chain: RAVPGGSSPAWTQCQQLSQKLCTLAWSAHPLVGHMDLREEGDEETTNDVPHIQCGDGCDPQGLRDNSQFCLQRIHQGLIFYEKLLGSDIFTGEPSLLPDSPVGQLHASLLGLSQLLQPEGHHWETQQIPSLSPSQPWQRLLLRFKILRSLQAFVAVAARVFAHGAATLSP

B1: BsAb #D3 (antibody)
chain 1: not shown
chain 2: DIQMTQSPSSLSASVGDRVTITCRTSENIYSYLAWYQQKPGKAPKLLIYNAKTLAEGVPSRFSGSGSGTDFTLTISSLQPEDFATYYCQHHYGIPFTFGQGTKVEIKRTVAAPSVFIFPPSDEQLKSGTASVVCLLNNFYPREAKVQWKVDNALQSGNSQESVTEQDSKDSTYSLSSTLTLSKADYEKHKVYACEVTHQGLSSPVTKSFNRGEC
B2: BsAb #D4 (antibody)
chain 1: not shown
chain 2: B1 chain 2
B3: BsAb #B7 (antibody)
chain 1: not shown
chain 2: B1 chain 2
B4: BsAb #B8 (antibody)
chain 1: not shown
chain 2: B1 chain 2
B5: BsAb #A7 (antibody)
chain 1: not shown
chain 2: B1 chain 2
chain 3: not shown
chain 4: not shown
B6: BsAb #A8 (antibody)
chain 1: EIVLTQSPATLSLSPGERATLSCRASQSVYSYLAWYQQKPGQAPRLLIYDASNRATGIPARFSGSGSGTDFTLTISSLEPEDFAVYYCQQRSNWPPFTFGPGTKVDIKASTKGPSVFPLAPSSKSTSGGTAALGCLVKDYFPEPVTVSWNSGALTSGVHTFPAVLQSSGLYSLSSVVTVPSSSLGTQTYICNVNHKPSNTKVDKKV
chain 2: B1 chain 2
chain 3: not shown
chain 4: not shown
B7: BsAb #A6 (antibody)
chain 1: B6 chain 1
chain 2: not shown
chain 3: not shown
chain 4: not shown
B8: BsAb #C8 (antibody)
chain 1: not shown
chain 2: EIVLTQSPATLSLSPGERATLSCRASQSVYSYLAWYQQKPGQAPRLLIYDASNRATGIPARFSGSGSGTDFTLTISSLEPEDFAVYYCQQRSNWPPFTFGPGTKVDIKGGGGSGGGGSGGGGSDIQMTQSPSSLSASVGDRVTITCRTSENIYSYLAWYQQKPGKAPKLLIYNAKTLAEGVPSRFSGSGSGTDFTLTISSLQPEDFATYYCQHHYGIPFTFGQGTKVEIKRTVAAPSVFIFPPSDEQLKSGTASVVCLLNNFYPREAKVQWKVDNALQSGNSQESVTEQDSKDSTYSLSSTLTLSKADYEKHKVYACEVTHQGLSSPVTKSFNRGEC

biological target: T2, human TNF alpha (TNFα) (UniProt P01375 77-233); assay: SPR; pre-bound with IL23p19
T2 sequence (P01375 77-233): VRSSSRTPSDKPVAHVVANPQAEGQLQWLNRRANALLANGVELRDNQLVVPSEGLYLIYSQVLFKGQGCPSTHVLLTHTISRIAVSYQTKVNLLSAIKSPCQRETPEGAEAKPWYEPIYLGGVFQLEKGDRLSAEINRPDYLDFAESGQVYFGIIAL

Kd	Binder
0.12 nM	B1
0.41 nM	B2
0.93 nM	B3
0.41 nM	B4

Biological target: T1, P19 subunit of human IL-23 (IL23p19)
Assay: SPR

Kd	Binder
0.2 nM	B1
0.08 nM	B5
0.11 nM	B2
0.1 nM	B3
0.08 nM	B6
0.07 nM	B4
0.04 nM	B7
1.66 nM	B8

biological target: T2, human TNF alpha (TNFα); assay: SPR

Kd	Binder
0.16 nM	B1
0.58 nM	B5
0.49 nM	B2
0.87 nM	B3
1.09 nM	B6
0.42 nM	B4
0.39 nM	B7
0.1 nM	B8
